Measured values reported in patent publication US20260015399A1 (Boehringer Ingelheim, published 2026).
*1 amine or outer side, *2 acyl side, *3 side chain or, on linkers, in order; H or OH if unused. Side-chain parts run from the residue outwards. The star is where a group is joined. C18 diacid = O=C(O)CCCCCCCCCCCCCCCCC(=O)*; γGlu = O=C(O)[C@H](CCC(=O)[*:2])N[*:1]; Isovaleryl = CC(C)CC(=O)*; Ahx = NCCCCCC(=O)O

T1: human NPY2 receptor (human, UniProt P49146 1-381)
T1 construct: whole, on cells; also called hNPY2-R; hNPY2R
T1 sequence (looked up): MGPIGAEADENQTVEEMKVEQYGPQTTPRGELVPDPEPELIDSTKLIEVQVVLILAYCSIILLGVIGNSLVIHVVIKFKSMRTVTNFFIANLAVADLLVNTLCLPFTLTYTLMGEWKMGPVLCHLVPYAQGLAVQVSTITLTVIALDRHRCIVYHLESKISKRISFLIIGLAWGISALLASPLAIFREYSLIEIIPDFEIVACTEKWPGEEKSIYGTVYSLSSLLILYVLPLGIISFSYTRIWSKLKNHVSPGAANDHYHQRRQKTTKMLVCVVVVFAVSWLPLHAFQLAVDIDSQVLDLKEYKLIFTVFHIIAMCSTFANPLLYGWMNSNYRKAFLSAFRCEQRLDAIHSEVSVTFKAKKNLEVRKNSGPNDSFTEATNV

B1: Compound 30 (peptide)
peptide: Isovaleryl-APEK([Ahx-γGlu-C18 diacid])PPADATPEELQRYYVSLRHYYNWLTRQRY-NH2
SMILES: CC(C)CC(=O)N[C@@H](C)C(=O)N1CCC[C@H]1C(=O)N[C@@H](CCC(=O)O)C(=O)N[C@@H](CCCCNC(=O)CCCCCNC(=O)CC[C@H](NC(=O)CCCCCCCCCCCCCCCCC(=O)O)C(=O)O)C(=O)N1CCC[C@H]1C(=O)N1CCC[C@H]1C(=O)N[C@@H](C)C(=O)N[C@@H](CC(=O)O)C(=O)N[C@@H](C)C(=O)N[C@H](C(=O)N1CCC[C@H]1C(=O)N[C@@H](CCC(=O)O)C(=O)N[C@@H](CCC(=O)O)C(=O)N[C@@H](CC(C)C)C(=O)N[C@@H](CCC(N)=O)C(=O)N[C@@H](CCCNC(=N)N)C(=O)N[C@@H](Cc1ccc(O)cc1)C(=O)N[C@@H](Cc1ccc(O)cc1)C(=O)N[C@H](C(=O)N[C@@H](CO)C(=O)N[C@@H](CC(C)C)C(=O)N[C@@H](CCCNC(=N)N)C(=O)N[C@@H](Cc1c[nH]cn1)C(=O)N[C@@H](Cc1ccc(O)cc1)C(=O)N[C@@H](Cc1ccc(O)cc1)C(=O)N[C@@H](CC(N)=O)C(=O)N[C@@H](Cc1c[nH]c2ccccc12)C(=O)N[C@@H](CC(C)C)C(=O)N[C@H](C(=O)N[C@@H](CCCNC(=N)N)C(=O)N[C@@H](CCC(N)=O)C(=O)N[C@@H](CCCNC(=N)N)C(=O)N[C@@H](Cc1ccc(O)cc1)C(N)=O)[C@@H](C)O)C(C)C)[C@@H](C)O
B2: Compound 34 (peptide)
peptide: Isovaleryl-APEK([Ahx-γGlu-C18 diacid])PEEDASAEELQQYYVSLRHYYNWLTRQRY-NH2
SMILES: CC(C)CC(=O)N[C@@H](C)C(=O)N1CCC[C@H]1C(=O)N[C@@H](CCC(=O)O)C(=O)N[C@@H](CCCCNC(=O)CCCCCNC(=O)CC[C@H](NC(=O)CCCCCCCCCCCCCCCCC(=O)O)C(=O)O)C(=O)N1CCC[C@H]1C(=O)N[C@@H](CCC(=O)O)C(=O)N[C@@H](CCC(=O)O)C(=O)N[C@@H](CC(=O)O)C(=O)N[C@@H](C)C(=O)N[C@@H](CO)C(=O)N[C@@H](C)C(=O)N[C@@H](CCC(=O)O)C(=O)N[C@@H](CCC(=O)O)C(=O)N[C@@H](CC(C)C)C(=O)N[C@@H](CCC(N)=O)C(=O)N[C@@H](CCC(N)=O)C(=O)N[C@@H](Cc1ccc(O)cc1)C(=O)N[C@@H](Cc1ccc(O)cc1)C(=O)N[C@H](C(=O)N[C@@H](CO)C(=O)N[C@@H](CC(C)C)C(=O)N[C@@H](CCCNC(=N)N)C(=O)N[C@@H](Cc1c[nH]cn1)C(=O)N[C@@H](Cc1ccc(O)cc1)C(=O)N[C@@H](Cc1ccc(O)cc1)C(=O)N[C@@H](CC(N)=O)C(=O)N[C@@H](Cc1c[nH]c2ccccc12)C(=O)N[C@@H](CC(C)C)C(=O)N[C@H](C(=O)N[C@@H](CCCNC(=N)N)C(=O)N[C@@H](CCC(N)=O)C(=O)N[C@@H](CCCNC(=N)N)C(=O)N[C@@H](Cc1ccc(O)cc1)C(N)=O)[C@@H](C)O)C(C)C
B3: Compound 32 (peptide)
peptide: Isovaleryl-APAK([Ahx-γGlu-C18 diacid])PEEDASPEELQRYYVSLRHQYNWLTRQRY-NH2
SMILES: CC(C)CC(=O)N[C@@H](C)C(=O)N1CCC[C@H]1C(=O)N[C@@H](C)C(=O)N[C@@H](CCCCNC(=O)CCCCCNC(=O)CC[C@H](NC(=O)CCCCCCCCCCCCCCCCC(=O)O)C(=O)O)C(=O)N1CCC[C@H]1C(=O)N[C@@H](CCC(=O)O)C(=O)N[C@@H](CCC(=O)O)C(=O)N[C@@H](CC(=O)O)C(=O)N[C@@H](C)C(=O)N[C@@H](CO)C(=O)N1CCC[C@H]1C(=O)N[C@@H](CCC(=O)O)C(=O)N[C@@H](CCC(=O)O)C(=O)N[C@@H](CC(C)C)C(=O)N[C@@H](CCC(N)=O)C(=O)N[C@@H](CCCNC(=N)N)C(=O)N[C@@H](Cc1ccc(O)cc1)C(=O)N[C@@H](Cc1ccc(O)cc1)C(=O)N[C@H](C(=O)N[C@@H](CO)C(=O)N[C@@H](CC(C)C)C(=O)N[C@@H](CCCNC(=N)N)C(=O)N[C@@H](Cc1c[nH]cn1)C(=O)N[C@@H](CCC(N)=O)C(=O)N[C@@H](Cc1ccc(O)cc1)C(=O)N[C@@H](CC(N)=O)C(=O)N[C@@H](Cc1c[nH]c2ccccc12)C(=O)N[C@@H](CC(C)C)C(=O)N[C@H](C(=O)N[C@@H](CCCNC(=N)N)C(=O)N[C@@H](CCC(N)=O)C(=O)N[C@@H](CCCNC(=N)N)C(=O)N[C@@H](Cc1ccc(O)cc1)C(N)=O)[C@@H](C)O)C(C)C
B4: Compound 33 (peptide)
peptide: Isovaleryl-APAK([Ahx-γGlu-C18 diacid])PEEDAEPEELQRYYISLRHYYNWLTRQRY-NH2
SMILES: CC[C@H](C)[C@H](NC(=O)[C@H](Cc1ccc(O)cc1)NC(=O)[C@H](Cc1ccc(O)cc1)NC(=O)[C@H](CCCNC(=N)N)NC(=O)[C@H](CCC(N)=O)NC(=O)[C@H](CC(C)C)NC(=O)[C@H](CCC(=O)O)NC(=O)[C@H](CCC(=O)O)NC(=O)[C@@H]1CCCN1C(=O)[C@H](CCC(=O)O)NC(=O)[C@H](C)NC(=O)[C@H](CC(=O)O)NC(=O)[C@H](CCC(=O)O)NC(=O)[C@H](CCC(=O)O)NC(=O)[C@@H]1CCCN1C(=O)[C@H](CCCCNC(=O)CCCCCNC(=O)CC[C@H](NC(=O)CCCCCCCCCCCCCCCCC(=O)O)C(=O)O)NC(=O)[C@H](C)NC(=O)[C@@H]1CCCN1C(=O)[C@H](C)NC(=O)CC(C)C)C(=O)N[C@@H](CO)C(=O)N[C@@H](CC(C)C)C(=O)N[C@@H](CCCNC(=N)N)C(=O)N[C@@H](Cc1c[nH]cn1)C(=O)N[C@@H](Cc1ccc(O)cc1)C(=O)N[C@@H](Cc1ccc(O)cc1)C(=O)N[C@@H](CC(N)=O)C(=O)N[C@@H](Cc1c[nH]c2ccccc12)C(=O)N[C@@H](CC(C)C)C(=O)N[C@H](C(=O)N[C@@H](CCCNC(=N)N)C(=O)N[C@@H](CCC(N)=O)C(=O)N[C@@H](CCCNC(=N)N)C(=O)N[C@@H](Cc1ccc(O)cc1)C(N)=O)[C@@H](C)O
B5: Compound 35 (peptide)
peptide: Isovaleryl-APAK([Ahx-γGlu-C18 diacid])PEEAATPEELQRYYVSLRHYYNWLTRQRY-NH2
SMILES: CC(C)CC(=O)N[C@@H](C)C(=O)N1CCC[C@H]1C(=O)N[C@@H](C)C(=O)N[C@@H](CCCCNC(=O)CCCCCNC(=O)CC[C@H](NC(=O)CCCCCCCCCCCCCCCCC(=O)O)C(=O)O)C(=O)N1CCC[C@H]1C(=O)N[C@@H](CCC(=O)O)C(=O)N[C@@H](CCC(=O)O)C(=O)N[C@@H](C)C(=O)N[C@@H](C)C(=O)N[C@H](C(=O)N1CCC[C@H]1C(=O)N[C@@H](CCC(=O)O)C(=O)N[C@@H](CCC(=O)O)C(=O)N[C@@H](CC(C)C)C(=O)N[C@@H](CCC(N)=O)C(=O)N[C@@H](CCCNC(=N)N)C(=O)N[C@@H](Cc1ccc(O)cc1)C(=O)N[C@@H](Cc1ccc(O)cc1)C(=O)N[C@H](C(=O)N[C@@H](CO)C(=O)N[C@@H](CC(C)C)C(=O)N[C@@H](CCCNC(=N)N)C(=O)N[C@@H](Cc1c[nH]cn1)C(=O)N[C@@H](Cc1ccc(O)cc1)C(=O)N[C@@H](Cc1ccc(O)cc1)C(=O)N[C@@H](CC(N)=O)C(=O)N[C@@H](Cc1c[nH]c2ccccc12)C(=O)N[C@@H](CC(C)C)C(=O)N[C@H](C(=O)N[C@@H](CCCNC(=N)N)C(=O)N[C@@H](CCC(N)=O)C(=O)N[C@@H](CCCNC(=N)N)C(=O)N[C@@H](Cc1ccc(O)cc1)C(N)=O)[C@@H](C)O)C(C)C)[C@@H](C)O
B6: Compound 31 (peptide)
peptide: Isovaleryl-APEK([Ahx-γGlu-C18 diacid])PEEDATPEELQPYYVSLRHYYNWLTRQRY-NH2
SMILES: CC(C)CC(=O)N[C@@H](C)C(=O)N1CCC[C@H]1C(=O)N[C@@H](CCC(=O)O)C(=O)N[C@@H](CCCCNC(=O)CCCCCNC(=O)CC[C@H](NC(=O)CCCCCCCCCCCCCCCCC(=O)O)C(=O)O)C(=O)N1CCC[C@H]1C(=O)N[C@@H](CCC(=O)O)C(=O)N[C@@H](CCC(=O)O)C(=O)N[C@@H](CC(=O)O)C(=O)N[C@@H](C)C(=O)N[C@H](C(=O)N1CCC[C@H]1C(=O)N[C@@H](CCC(=O)O)C(=O)N[C@@H](CCC(=O)O)C(=O)N[C@@H](CC(C)C)C(=O)N[C@@H](CCC(N)=O)C(=O)N1CCC[C@H]1C(=O)N[C@@H](Cc1ccc(O)cc1)C(=O)N[C@@H](Cc1ccc(O)cc1)C(=O)N[C@H](C(=O)N[C@@H](CO)C(=O)N[C@@H](CC(C)C)C(=O)N[C@@H](CCCNC(=N)N)C(=O)N[C@@H](Cc1c[nH]cn1)C(=O)N[C@@H](Cc1ccc(O)cc1)C(=O)N[C@@H](Cc1ccc(O)cc1)C(=O)N[C@@H](CC(N)=O)C(=O)N[C@@H](Cc1c[nH]c2ccccc12)C(=O)N[C@@H](CC(C)C)C(=O)N[C@H](C(=O)N[C@@H](CCCNC(=N)N)C(=O)N[C@@H](CCC(N)=O)C(=O)N[C@@H](CCCNC(=N)N)C(=O)N[C@@H](Cc1ccc(O)cc1)C(N)=O)[C@@H](C)O)C(C)C)[C@@H](C)O

Target: T1, human NPY2 receptor
Test: RLB: displacement of 125I-PYY(1-36) from hNPY2R membranes

| Ki | Binder |
| --- | --- |
| 0.3 nM | B1 |
| 3.53 nM | B2 |
| 13.6 nM | B3 |
| 2.53 nM | B4 |
| 1.4 nM | B5 |
| 34.7 nM | B6 |
